Laboratory results published in patent US20190022245A1.

Molecular target: epidermal growth factor receptor (EGFR) on cells (human (on human cell lines)) (UniProt P00533)
Assay: cell-based or functional assay

region of interest (ROI) ratio of SW480 (EGFR+) to SW620 (EGFR-) tumors, 24 h: 2.04
region of interest (ROI) ratio of SW480 (EGFR+) to SW620 (EGFR-) tumors, 48 h: 2.32
region of interest (ROI) ratio of SW480 (EGFR+) to SW620 (EGFR-) tumors, 72 h: 2.33
B1: h15-2b Fab × EGFR scFv (monovalent anti-mPEG (h15-2b) anti-EGFR BsAb, example 2.3) (bispecific antibody, part only; not given: nothing essential named, not shown: another chain or arm of the molecule; ; small tags and cut ends)
light: DIQMTQSPSSLSASVGDRVTITCKASQDVNTSVAWYQQKPGKAPKLLIYWASTRHTGVPSRFSGSGSGTDFTFTISSLQPEDIATYYCLQYINYPYTFGQGTKLEIKRTVAAPSVFIFPPSDEQLKSGTASVVCLLNNFYPREAKVQWKVDNALQSGNSQESVTEQDSKDSTYSLSSTLTLSKADYEKHKLYACEVTHQGLSSPVTKSFNRGEC
heavy: EVQLVESGGGLVQPGGSLKLSCAASGFTFSNYWMNWVRQASGKGLEWVGEIRSKSNNYATHYAESVKGRFTISRDDSKNTAYLQMNSLKTEDTAVYYCSNRYYWGQGTLVTVSSASTKGPSVFPLAPCSRSTSESTAALGCLVKDYFPEPVTVSWNSGALTSGVHTFPAVLQSSGLYSLSSVVTVPSSNFGTQTYTCNVDHKPSNTKVDKTVERKGEQKLISEEDLGGGGSGGGGSGGGGSQLDIVMTQSPLSLPVTPGEPASISCRSSQNIVHNNGITYLEWYLQKPGQSPQLLIYKVSDRFSGVPDRFSGSGSGTDFTLKISRVEAEDVGVYYCFQGSHIPPTFGQGTKVEIKRAGGGGSGGGGSGGGGSQVQLVQSGAEVKKPGASVKVSCKASGYTFTSYWMHWVRQAPGQGLEWMGNIYPGSGGTNYAEKFKNRVTMTRDTSISTAYMELSRLRSDDTAVYYCARSGGPYFFDYWGQGTLVTVSS
